{"source": "the supplement of paper PMC9112550", "about": "“Optimization of the antimicrobial peptide Bac7 by deep mutational scanning” (BMC Biology, 2022);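 also: peptides expressed intracellularly from a pBAD plasmid library in pooled LB shake-flask culture, induced with 0.3% L-arabinose, DNA abundance read by NGS, three biological replicates, DESeq2 with apeglm shrinkage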", "system": "Escherichia coli TOP10", "assay": "shrunken log2 fold change of peptide-encoding DNA abundance (4.5 h post-induction vs induction); higher = less antimicrobial activity (less host growth inhibition)", "settings": "time post-induction: 4.5 h; library: site-saturation at positions 5, 18, 19, 20", "data": [{"sequence": "RRIRCRPPRLPRPRPRPDRTPRP", "values": [{"measurement": "shrunken log2 fold change", "result": 0.0438}]}, {"sequence": "RRIRFRPPRLPRPRPRPKEYPRP", "values": [{"measurement": "shrunken log2 fold change", "result": -0.468}]}, {"sequence": "RRIRWRPPRLPRPRPRPHIEPRP", "values": [{"measurement": "shrunken log2 fold change", "result": 0.0376}]}, {"sequence": "RRIRWRPPRLPRPRPRPAADPRP", "values": [{"measurement": "shrunken log2 fold change", "result": 1.21}]}, {"sequence": "RRIRIRPPRLPRPRPRPCLNPRP", "values": [{"measurement": "shrunken log2 fold change", "result": -0.0496}]}, {"sequence": "RRIRMRPPRLPRPRPRPIAMPRP", "values": [{"measurement": "shrunken log2 fold change", "result": 0.0028}]}, {"sequence": "RRIRIRPPRLPRPRPRPPFTPRP", "values": [{"measurement": "shrunken log2 fold change", "result": 0.0753}]}, {"sequence": "RRIRVRPPRLPRPRPRPVAIPRP", "values": [{"measurement": "shrunken log2 fold change", "result": -0.396}]}, {"sequence": "RRIRIRPPRLPRPRPRPTFGPRP", "values": [{"measurement": "shrunken log2 fold change", "result": -0.28}]}, {"sequence": "RRIRGRPPRLPRPRPRPAQIPRP", "values": [{"measurement": "shrunken log2 fold change", "result": 0.592}]}, {"sequence": "RRIRDRPPRLPRPRPRPYMDPRP", "values": [{"measurement": "shrunken log2 fold change", "result": -0.393}]}, {"sequence": "RRIRSRPPRLPRPRPRPIEFPRP", "values": [{"measurement": "shrunken log2 fold change", "result": -0.387}]}, {"sequence": "RRIRYRPPRLPRPRPRPRGAPRP", "values": [{"measurement": "shrunken log2 fold change", "result": 1.34}]}, {"sequence": "RRIRQRPPRLPRPRPRPFIPPRP", "values": [{"measurement": "shrunken log2 fold change", "result": -0.395}]}, {"sequence": "RRIRQRPPRLPRPRPRPSYLPRP", "values": [{"measurement": "shrunken log2 fold change", "result": -0.482}]}, {"sequence": "RRIRDRPPRLPRPRPRPHKQPRP", "values": [{"measurement": "shrunken log2 fold change", "result": 0.00319}]}, {"sequence": "RRIRQRPPRLPRPRPRPNTNPRP", "values": [{"measurement": "shrunken log2 fold change", "result": -0.47}]}, {"sequence": "RRIRMRPPRLPRPRPRPEPGPRP", "values": [{"measurement": "shrunken log2 fold change", "result": 2.73}]}, {"sequence": "RRIRLRPPRLPRPRPRPYSIPRP", "values": [{"measurement": "shrunken log2 fold change", "result": 0.0705}]}, {"sequence": "RRIRTRPPRLPRPRPRPGAVPRP", "values": [{"measurement": "shrunken log2 fold change", "result": 0.104}]}, {"sequence": "RRIRMRPPRLPRPRPRPKCKPRP", "values": [{"measurement": "shrunken log2 fold change", "result": 0.365}]}, {"sequence": "RRIRVRPPRLPRPRPRPHMFPRP", "values": [{"measurement": "shrunken log2 fold change", "result": -0.199}]}, {"sequence": "RRIRGRPPRLPRPRPRPQYEPRP", "values": [{"measurement": "shrunken log2 fold change", "result": 0.0238}]}, {"sequence": "RRIRKRPPRLPRPRPRPQWDPRP", "values": [{"measurement": "shrunken log2 fold change", "result": 0.00929}]}, {"sequence": "RRIRQRPPRLPRPRPRPTFWPRP", "values": [{"measurement": "shrunken log2 fold change", "result": 2.04}]}, {"sequence": "RRIRQRPPRLPRPRPRPPTQPRP", "values": [{"measurement": "shrunken log2 fold change", "result": 0.0976}]}, {"sequence": "RRIRRRPPRLPRPRPRPFEVPRP", "values": [{"measurement": "shrunken log2 fold change", "result": 0.0871}]}, {"sequence": "RRIRDRPPRLPRPRPRPAANPRP", "values": [{"measurement": "shrunken log2 fold change", "result": 0.273}]}, {"sequence": "RRIRQRPPRLPRPRPRPYTLPRP", "values": [{"measurement": "shrunken log2 fold change", "result": 0.0232}]}, {"sequence": "RRIRYRPPRLPRPRPRPYYWPRP", "values": [{"measurement": "shrunken log2 fold change", "result": -0.111}]}, {"sequence": "RRIRFRPPRLPRPRPRPIEEPRP", "values": [{"measurement": "shrunken log2 fold change", "result": 0.0565}]}, {"sequence": "RRIRMRPPRLPRPRPRPIWWPRP", "values": [{"measurement": "shrunken log2 fold change", "result": 0.124}]}, {"sequence": "RRIRQRPPRLPRPRPRPWSFPRP", "values": [{"measurement": "shrunken log2 fold change", "result": -0.026}]}, {"sequence": "RRIRERPPRLPRPRPRPNDHPRP", "values": [{"measurement": "shrunken log2 fold change", "result": -0.622}]}, {"sequence": "RRIRARPPRLPRPRPRPDSVPRP", "values": [{"measurement": "shrunken log2 fold change", "result": 0.118}]}, {"sequence": "RRIRDRPPRLPRPRPRPYIAPRP", "values": [{"measurement": "shrunken log2 fold change", "result": -0.652}]}, {"sequence": "RRIRIRPPRLPRPRPRPFNLPRP", "values": [{"measurement": "shrunken log2 fold change", "result": -0.496}]}, {"sequence": "RRIRIRPPRLPRPRPRPSWSPRP", "values": [{"measurement": "shrunken log2 fold change", "result": -0.458}]}, {"sequence": "RRIRIRPPRLPRPRPRPQCVPRP", "values": [{"measurement": "shrunken log2 fold change", "result": -0.0555}]}, {"sequence": "RRIRNRPPRLPRPRPRPWQNPRP", "values": [{"measurement": "shrunken log2 fold change", "result": 0.191}]}, {"sequence": "RRIRSRPPRLPRPRPRPCPEPRP", "values": [{"measurement": "shrunken log2 fold change", "result": -0.444}]}, {"sequence": "RRIRGRPPRLPRPRPRPSEMPRP", "values": [{"measurement": "shrunken log2 fold change", "result": 0.4}]}, {"sequence": "RRIRFRPPRLPRPRPRPMQDPRP", "values": [{"measurement": "shrunken log2 fold change", "result": -0.0947}]}, {"sequence": "RRIRMRPPRLPRPRPRPIDPPRP", "values": [{"measurement": "shrunken log2 fold change", "result": -0.0553}]}, {"sequence": "RRIRMRPPRLPRPRPRPLQGPRP", "values": [{"measurement": "shrunken log2 fold change", "result": 0.126}]}, {"sequence": "RRIRMRPPRLPRPRPRPEPEPRP", "values": [{"measurement": "shrunken log2 fold change", "result": 2.64}]}, {"sequence": "RRIRCRPPRLPRPRPRPAYEPRP", "values": [{"measurement": "shrunken log2 fold change", "result": -0.28}]}, {"sequence": "RRIRTRPPRLPRPRPRPIWSPRP", "values": [{"measurement": "shrunken log2 fold change", "result": 0.0914}]}, {"sequence": "RRIRVRPPRLPRPRPRPMIMPRP", "values": [{"measurement": "shrunken log2 fold change", "result": -0.126}]}, {"sequence": "RRIRSRPPRLPRPRPRPGHNPRP", "values": [{"measurement": "shrunken log2 fold change", "result": -0.433}]}, {"sequence": "RRIRERPPRLPRPRPRPGENPRP", "values": [{"measurement": "shrunken log2 fold change", "result": 0.00425}]}, {"sequence": "RRIRYRPPRLPRPRPRPKRYPRP", "values": [{"measurement": "shrunken log2 fold change", "result": -0.0281}]}, {"sequence": "RRIRCRPPRLPRPRPRPEMCPRP", "values": [{"measurement": "shrunken log2 fold change", "result": 0.0156}]}, {"sequence": "RRIRLRPPRLPRPRPRPQMCPRP", "values": [{"measurement": "shrunken log2 fold change", "result": -0.0742}]}, {"sequence": "RRIRMRPPRLPRPRPRPVACPRP", "values": [{"measurement": "shrunken log2 fold change", "result": 0.122}]}, {"sequence": "RRIRWRPPRLPRPRPRPYCKPRP", "values": [{"measurement": "shrunken log2 fold change", "result": -0.864}]}, {"sequence": "RRIRLRPPRLPRPRPRPHHQPRP", "values": [{"measurement": "shrunken log2 fold change", "result": -0.162}]}, {"sequence": "RRIRERPPRLPRPRPRPANWPRP", "values": [{"measurement": "shrunken log2 fold change", "result": 0.173}]}, {"sequence": "RRIRWRPPRLPRPRPRPLLIPRP", "values": [{"measurement": "shrunken log2 fold change", "result": 0.0213}]}, {"sequence": "RRIRQRPPRLPRPRPRPYIKPRP", "values": [{"measurement": "shrunken log2 fold change", "result": -1.38}]}, {"sequence": "RRIRARPPRLPRPRPRPQRDPRP", "values": [{"measurement": "shrunken log2 fold change", "result": 0.225}]}, {"sequence": "RRIRMRPPRLPRPRPRPMIYPRP", "values": [{"measurement": "shrunken log2 fold change", "result": -0.178}]}, {"sequence": "RRIRFRPPRLPRPRPRPYNHPRP", "values": [{"measurement": "shrunken log2 fold change", "result": -1.2}]}, {"sequence": "RRIRLRPPRLPRPRPRPDKTPRP", "values": [{"measurement": "shrunken log2 fold change", "result": -0.146}]}, {"sequence": "RRIRERPPRLPRPRPRPCLWPRP", "values": [{"measurement": "shrunken log2 fold change", "result": -0.0179}]}, {"sequence": "RRIRMRPPRLPRPRPRPESTPRP", "values": [{"measurement": "shrunken log2 fold change", "result": 2.28}]}, {"sequence": "RRIRLRPPRLPRPRPRPMYQPRP", "values": [{"measurement": "shrunken log2 fold change", "result": -0.29}]}, {"sequence": "RRIRQRPPRLPRPRPRPGFAPRP", "values": [{"measurement": "shrunken log2 fold change", "result": 0.249}]}, {"sequence": "RRIRKRPPRLPRPRPRPARIPRP", "values": [{"measurement": "shrunken log2 fold change", "result": 0.0491}]}, {"sequence": "RRIRVRPPRLPRPRPRPNDHPRP", "values": [{"measurement": "shrunken log2 fold change", "result": -0.302}]}, {"sequence": "RRIRTRPPRLPRPRPRPNEIPRP", "values": [{"measurement": "shrunken log2 fold change", "result": -0.128}]}, {"sequence": "RRIRRRPPRLPRPRPRPLPIPRP", "values": [{"measurement": "shrunken log2 fold change", "result": 0.451}]}, {"sequence": "RRIRHRPPRLPRPRPRPVIKPRP", "values": [{"measurement": "shrunken log2 fold change", "result": -0.0701}]}, {"sequence": "RRIRRRPPRLPRPRPRPRWKPRP", "values": [{"measurement": "shrunken log2 fold change", "result": -0.0516}]}, {"sequence": "RRIRRRPPRLPRPRPRPTWPPRP", "values": [{"measurement": "shrunken log2 fold change", "result": 0.647}]}, {"sequence": "RRIRSRPPRLPRPRPRPEPFPRP", "values": [{"measurement": "shrunken log2 fold change", "result": 0.621}]}, {"sequence": "RRIRFRPPRLPRPRPRPYLNPRP", "values": [{"measurement": "shrunken log2 fold change", "result": -0.454}]}, {"sequence": "RRIRVRPPRLPRPRPRPSHIPRP", "values": [{"measurement": "shrunken log2 fold change", "result": -0.706}]}, {"sequence": "RRIRLRPPRLPRPRPRPYGRPRP", "values": [{"measurement": "shrunken log2 fold change", "result": -0.2}]}, {"sequence": "RRIRARPPRLPRPRPRPTLTPRP", "values": [{"measurement": "shrunken log2 fold change", "result": 1.08}]}, {"sequence": "RRIRRRPPRLPRPRPRPGMFPRP", "values": [{"measurement": "shrunken log2 fold change", "result": 0.00289}]}, {"sequence": "RRIRTRPPRLPRPRPRPLYHPRP", "values": [{"measurement": "shrunken log2 fold change", "result": -0.48}]}, {"sequence": "RRIRERPPRLPRPRPRPSKDPRP", "values": [{"measurement": "shrunken log2 fold change", "result": -0.664}]}, {"sequence": "RRIRIRPPRLPRPRPRPLVWPRP", "values": [{"measurement": "shrunken log2 fold change", "result": 0.0428}]}, {"sequence": "RRIRIRPPRLPRPRPRPHDLPRP", "values": [{"measurement": "shrunken log2 fold change", "result": -0.057}]}, {"sequence": "RRIRKRPPRLPRPRPRPPTWPRP", "values": [{"measurement": "shrunken log2 fold change", "result": 0.702}]}, {"sequence": "RRIRIRPPRLPRPRPRPIAMPRP", "values": [{"measurement": "shrunken log2 fold change", "result": -0.216}]}, {"sequence": "RRIRRRPPRLPRPRPRPWSMPRP", "values": [{"measurement": "shrunken log2 fold change", "result": -0.121}]}, {"sequence": "RRIRMRPPRLPRPRPRPRYHPRP", "values": [{"measurement": "shrunken log2 fold change", "result": -0.186}]}, {"sequence": "RRIRFRPPRLPRPRPRPKPNPRP", "values": [{"measurement": "shrunken log2 fold change", "result": 0.545}]}, {"sequence": "RRIRRRPPRLPRPRPRPCCKPRP", "values": [{"measurement": "shrunken log2 fold change", "result": -0.0824}]}]}
